In paper PMC6511843:

Experiments:
HA.ELK-1 = test: EMSA; conditions: not given in material (EMSA as in ref 29; southwestern as in ref 34, modified)
ELK-mUBQ = test: southwestern; conditions: renatured on nitrocellulose; not given in material (EMSA as in ref 29; southwestern as in ref 34, modified)
ELK-1(K35R);coreSRF = test: EMSA; conditions: not given in material (EMSA as in ref 29; southwestern as in ref 34, modified)
ELK-1(K70R);coreSRF = test: EMSA; conditions: not given in material (EMSA as in ref 29; southwestern as in ref 34, modified)
HA.ELK-1;coreSRF = test: EMSA; conditions: not given in material (EMSA as in ref 29; southwestern as in ref 34, modified)

For E74 site, the binding signal (% (reference)) (HA.ELK-1) was 100 and the binding signal (fold less than unmodified ELK-1) (ELK-mUBQ) was 4.
For CFOS SRE, the binding signal (% of WT ELK-1) (ELK-1(K35R);coreSRF) was 80, the binding signal (% of WT ELK-1) (ELK-1(K70R);coreSRF) was 80 and the binding signal (% (reference)) (HA.ELK-1;coreSRF) was 100.
